Consider two molecules from patent publication US20210163534A1 (KYUNGPOOK NATIONAL UNIVERSITY INDUSTRY ACADEMIC COOPERATION …, published 2021).

No end group written: not given here.

This assay concerns the target T1, PD-L1 expressed on MDA-MB231 cells (human, UniProt Q9NZQ7 19-290).
T1 construct: whole, on cells; Endogenous protein of a human cell line; also called MDA-MB 231 cells expressing PD-L1
Nature of the assay: flow cytometry on MDA-MB231 cells after siRNA knockdown of PD-L1.

T1 sequence (Q9NZQ7 19-290): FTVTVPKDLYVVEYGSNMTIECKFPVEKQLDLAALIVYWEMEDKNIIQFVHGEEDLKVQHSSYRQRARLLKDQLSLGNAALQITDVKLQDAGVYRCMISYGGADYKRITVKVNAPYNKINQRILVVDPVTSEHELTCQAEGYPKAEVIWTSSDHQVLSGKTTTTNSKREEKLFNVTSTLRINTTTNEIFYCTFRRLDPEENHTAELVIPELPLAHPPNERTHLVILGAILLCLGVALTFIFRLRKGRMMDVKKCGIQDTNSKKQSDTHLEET

B1: PD-L1Pep-1 (peptide)
peptide: CLQKTPKQC
modifications: cysteine pairing not given here; also: N-terminal FITC, biotin or Flamma-675 depending on assay
notes: also called PBP
Regarding B1, the binding result is reported as “binds”.

B2: PD-L1Pep-2 (peptide)
peptide: CVRARTR
modifications: also: N-terminal FITC, biotin or Flamma-675 depending on assay
notes: Synthetic peptide CVRARTR from a T7 phage library; also called PBP
Turning to B2, the binding result is reported as “binds”.
